Results: the supplement of paper PMC7877785
± gives the uncertainty stated by the source.

Assay: self-splicing fitness, log relative to wild type (ln ratio); higher = more splicing; Tetrahymena group I intron in knt gene, E. coli kanamycin selection, DiMSum; sequences stand for … in CUCUCU…GGAGGGAAAAGUUAUCAGGCAUGCACCUGGUAGCUAGUCUUUAAACCAAUAGAUUGCAUCGGUUUAAAAGGCAAGACCGUCAAAUUGCGGGAAAGGGGUCAACAGCCGUUCAGUACCAAGUCUCAGGGGAAACUUUGAGAUGGCCUUGCAAAGGGUAUGGUAAUAAGCUGACGGACAUGGUCCUAACCACGCAGCCAAGUCCUAAGUCAACAGAUCUUCUGUUGAUAUGGAUGCAGUUCACAGACUAAAUGUCGGUCGGGGAAGAUGUAUUCUUCUCAUAAGAUAUAGUCGGACCUCUCCUUAAUGGGAGCUAGCGGAUGAAGUGAUGCAACACUGGAGCCGCUGGGAACUAAUUUGUAUGCGAAAGUAUAUUGAUUAGUUUUGGAGUACUCGUGGUCG
Procedure, shortened: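 Pooled colonies went to amplicon sequencing on an Illumina HiSeq 2500 after six replicate transformations. The plates were LB agar with 100 μg/mL carbenicillin, 50 μM IPTG and 0.2% rhamnose, with or without 25 μg/mL kanamycin, incubated overnight at 37°C or 30°C. The E. coli BL21(DE3) library had all eight P1ex-region intron nucleotides randomised, the intron placed in the knt kanamycin-resistance gene on pET-22b(+). DiMSum fitness is the error-weighted combination of replicate fold changes, kanamycin against none, normalised to wild type.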

Sequence	self-splicing fitness (ln) (30 °C)	self-splicing fitness (ln) (37 °C)
AGAAAGCAAUAUUACGCCAU	-3.16 ± 0.2	-2.21 ± 0.2
AAAGAGCAAUAUUACGCGCA	-2.39 ± 0.17	-1.5 ± 0.12
AAGAAGCAAUAUUACGGCCC	-0.651 ± 0.13	-0.518 ± 0.16
CUCAAGCAAUAUUACGCUAA	-3.13 ± 0.2	-2.96 ± 0.22
AUCCAGCAAUAUUACGUACA	-1.28 ± 0.11	-0.729 ± 0.18
CACCAGCAAUAUUACGGCAU	-2.64 ± 0.066	-0.735 ± 0.069
UUUUAGCAAUAUUACGACGA	-0.357 ± 0.14	0.422 ± 0.19
GAGAAGCAAUAUUACGACCU	0.392 ± 0.1	-0.128 ± 0.096
AAUUAGCAAUAUUACGCGUU	-3.13 ± 0.32	-2.61 ± 0.28
GAAUAGCAAUAUUACGUUUU	-3.38 ± 0.16	-0.859 ± 0.11
CGCCAGCAAUAUUACGGACC	-1.3 ± 0.15	-0.361 ± 0.18
ACGGAGCAAUAUUACGGGUU	-3.25 ± 0.16	-3.6 ± 0.3
AGAUAGCAAUAUUACGGUAC	-3.91 ± 0.28	-2.42 ± 0.22
GGGCAGCAAUAUUACGAGAA	-3.05 ± 0.47	-1.87 ± 0.3
GGUCAGCAAUAUUACGUGCC	-2.9 ± 0.23	-0.811 ± 0.26
AGUGAGCAAUAUUACGGGUU	-2.39 ± 0.26	-2.35 ± 0.33
AUAAAGCAAUAUUACGUCUG	-0.676 ± 0.079	-0.47 ± 0.11
CACCAGCAAUAUUACGCGCU	-3.42 ± 0.14	-2.59 ± 0.16
ACCCAGCAAUAUUACGUGAU	-0.402 ± 0.034	0.181 ± 0.048
ACACAGCAAUAUUACGAUUU	-0.589 ± 0.036	0.0571 ± 0.056
GUAAAGCAAUAUUACGAUUA	0.307 ± 0.087	0.518 ± 0.1
GUAUAGCAAUAUUACGAUUU	-1.63 ± 0.11	0.247 ± 0.13
GGGCAGCAAUAUUACGGAUU	-0.98 ± 0.12	-0.0797 ± 0.1
CACCAGCAAUAUUACGCAGA	-3.13 ± 0.13	-2.57 ± 0.13

Sequence	self-splicing fitness (ln) (30 °C)	self-splicing fitness (ln) (37 °C)
AACGAGCAAUAUUACGCUUA	-2.86 ± 0.26	-1.31 ± 0.2
GGUAAGCAAUAUUACGCUUU	-1.88 ± 0.24	-2.02 ± 0.33
UGGAAGCAAUAUUACGCAUC	–	-1.1 ± 0.3
CGUAAGCAAUAUUACGAAUU	-3.76 ± 0.29	-2.17 ± 0.21
AAGAAGCAAUAUUACGGCAU	0.143 ± 0.12	-0.43 ± 0.16
UGUGAGCAAUAUUACGCACA	-2.63 ± 0.29	-2.84 ± 0.34
AAGAAGCAAUAUUACGUAAC	-2.35 ± 0.14	-1.2 ± 0.12
AAGAAGCAAUAUUACGCCCC	-0.875 ± 0.12	-0.358 ± 0.17
CUCCAGCAAUAUUACGUGGU	-3.42 ± 0.12	-3.19 ± 0.15
AGCCAGCAAUAUUACGUACU	-0.0754 ± 0.072	0.219 ± 0.086
AAAGAGCAAUAUUACGCGUU	-2.13 ± 0.14	-1.32 ± 0.14
GGGUAGCAAUAUUACGCUUU	-0.389 ± 0.11	-0.688 ± 0.12
CAUUAGCAAUAUUACGCCUA	–	-1.73 ± 0.31
AUGUAGCAAUAUUACGAGCA	-1.07 ± 0.11	-1.07 ± 0.12
UUUUAGCAAUAUUACGGUGG	-1.24 ± 0.084	-1.16 ± 0.13
CGACAGCAAUAUUACGAUCU	-0.335 ± 0.1	0.552 ± 0.094
AAGAAGCAAUAUUACGAGAG	-4.49 ± 0.36	-2.41 ± 0.2
ACAAAGCAAUAUUACGGGUG	-1.21 ± 0.046	-0.593 ± 0.064
GCCGAGCAAUAUUACGCCUU	-3.44 ± 0.27	-2 ± 0.36
UUAAAGCAAUAUUACGCCGC	-2.1 ± 0.39	0.305 ± 0.29
CGUCAGCAAUAUUACGACUA	-0.58 ± 0.13	0.632 ± 0.18
GGACAGCAAUAUUACGUUGA	-0.48 ± 0.07	0.279 ± 0.098
GUCUAGCAAUAUUACGCGGA	-2.61 ± 0.33	-2.07 ± 0.27
AGGGAGCAAUAUUACGACUA	-2.2 ± 0.5	-1.98 ± 0.32
